Experimental data published in paper PMC11883000, “Structure-function relationship of ASH1L and histone H3K36 and H3K4 methylation” (Nature Communications, 2025).

Biological target: Substitution of D2595 or D2584 with alanine (ASH1L PHD finger mutants)
Assay: not stated; wild type and mutants of ASH1LPHD with H3K4me3 peptide (Fig. 3c, Supplementary Figs. 5 and 6); the legend names tryptophan fluorescence, MST or NMR, which for each mutant is marked only in the figure

Kd: 5 to 7 µM
Substance: histone H3K4me3 peptide (aa 1-12 of H3) (from UniProt P68431 2-13)
